Data published in patent US20220074941A1, “HSP90 COMBINATION THERAPY” (Sloan-Kettering Institute for Cancer Research, priority 2011, published 2022).

B1: CT45A5 (protein, UniProt P0DMU8 1-189, looked up)
Cancer/testis antigen family …: MTDKTEKVAVDPETVFKRPRECDSPSYQKRQRMALLARKQGAGDSLIAGSAMSKEKKLMTGHAIPPSQLDSQIDDFTGFSKDGMMQKPGSNAPVGGNVTSSFSGDDLECRETASSPKSQREINADIKRKLVKELRCVGQKYEKIFEMLEGVQGPTAVRKRFFESIIKEAARCMRRDFVKHLKKKLKRMI
B2: WASF2 (protein, UniProt Q9Y6W5 1-498, looked up)
Actin-binding protein WASF2: MPLVTRNIEPRHLCRQTLPSVRSELECVTNITLANVIRQLGSLSKYAEDIFGELFTQANTFASRVSSLAERVDRLQVKVTQLDPKEEEVSLQGINTRKAFRSSTIQDQKLFDRNSLPVPVLETYNTCDTPPPLNNLTPYRDDGKEALKFYTDPSYFFDLWKEKMLQDTKDIMKEKRKHRKEKKDNPNRGNVNPRKIKTRKEEWEKMKMGQEFVESKEKLGTSGYPPTLVYQNGSIGCVENVDASSYPPPPQSDSASSPSPSFSEDNLPPPPAEFSYPVDNQRGSGLAGPKRSSVVSPSHPPPAPPLGSPPGPKPGFAPPPAPPPPPPPMIGIPPPPPPVGFGSPGTPPPPSPPSFPPHPDFAAPPPPPPPPAADYPTLPPPPLSQPTGGAPPPPPPPPPPGPPPPPFTGADGQPAIPPPLSDTTKPKSSLPAVSDARSDLLSAIRQGFQLRRVEEQREQEKRDVVGNDVATILSRRIAVEYSDSEDDSSEFDEDDWSD
B3: PSD4 (protein, UniProt Q8NDX1 1-1056, looked up)
PH and SEC7 domain-containing …: MMGDYRLPDHPQPMEILNLYLGDSLEPHPGECPRETCSHEDPPEPFEEQTWATDPPEPTRQNVPPWGSGVELTHLGSWVHQDGLEPCQEQTRATDPPESTRQDAPPWGSGVELTHLGSPSAQREHRQNTASPGSPVNSHLPGSPKQNRSTSTQVVFWAGILQAQMCVLDLEEELEKTEGLKAGLKCCLPTPPVDLPGDTGLHSSPPENEDSGEDSSEPEGEGQAWLREGTPDSSPQWGAEEESMFFSNPLFLASPCSENSASGECFSWGASDSHAGVRTGPESPATLEPPLPEDTVLWELESEPDLGDGAAISGHCTPPFPVPIYKPHSICWASVAAAEGAPAAPPGHGESEGDRLGPAPSAAPCVDEALTWESGCVGSDLGPAAHPVQPWASLSPEGWQRGGPFWPQVTLNSQDRDEREGGHPQESLPCTLAPCPWRSPASSPEPSSPESESRGPGPRPSPASSQEGSPQLQHHSSGILPKWTLDASQSSLLETDGEQPSSLKKKEAGEAPKPGEEVKSEGTARPAETGDVQPDIHLTSAEHENLRTPMNSSWLPGSPMPQAQSPEEGQRPPAGDKLANGVRNNKVAWNLASRLYRLEGFRKSEVAAYLQKNNDFSRAVAEEYLSFFQFGGQSLDRALRSFLQALVLSGETQERERILYQFSRRFHHCNPGIFPSVDSVHTLTCAIMLLNTDLHGQNIGKSMSCQEFITNLNGLRDGGNFPKELLKALYWSIRSEKLEWAVDEEDTARPEKAQPSLPAGKMSKPFLQLAQDPTVPTYKQGILARKMHQDADGKKTPWGKRGWKMFHTLLRGMVLYFLKQGEDHCLEGESLVGQMVDEPVGVHHSLATPATHYTKKPHVFQLRTADWRLYLFQAPTAKEMSSWIARINLAAATHSAPPFPAAVGSQRRFVRPILPVGPAQSSLEEQHRSHENCLDAAADDLLDLQRNLPERRGRGRELEEHRLRKEYLEYEKTRYETYVQLLVARLHCPSDALDLWEEQLGREAGGTREPKLSLKKSHSSPSLHQDEAPTTAKVKRNISERRTYRKIIPKRNRNQL
B4: ZBED1 (protein, UniProt O96006 1-694, looked up)
E3 SUMO-protein ligase ZBED1: MENKSLESSQTDLKLVAHPRAKSKVWKYFGFDTNAEGCILQWKKIYCRICMAQIAYSGNTSNLSYHLEKNHPEEFCEFVKSNTEQMREAFATAFSKLKPESSQQPGQDALAVKAGHGYDSKKQQELTAAVLGLICEGLYPASIVDEPTFKVLLKTADPRYELPSRKYISTKAIPEKYGAVREVILKELAEATWCGISTDMWRSENQNRAYVTLAAHFLGLGAPNCLSMGSRCLKTFEVPEENTAETITRVLYEVFIEWGISAKVFGATTNYGKDIVKACSLLDVAVHMPCLGHTFNAGIQQAFQLPKLGALLSRCRKLVEYFQQSAVAMYMLYEKQKQQNVAHCMLVSNRVSWWGSTLAMLQRLKEQQFVIAGVLVEDSNNHHLMLEASEWATIEGLVELLQPFKQVAEMLSASRYPTISMVKPLLHMLLNTTLNIKETDSKELSMAKEVIAKELSKTYQETPEIDMFLNVATFLDPRYKRLPFLSAFERQQVENRVVEEAKGLLDKVKDGGYRPAEDKIFPVPEEPPVKKLMRTSTPPPASVINNMLAEIFCQTGGVEDQEEWHAQVVEELSNFKSQKVLGLNEDPLKWWSDRLALFPLLPKVLQKYWCVTATRVAPERLFGSAANVVSAKRNRLAPAHVDEQVFLYENARSGAEAEPEDQDEGEWGLDQEQVFSLGDGVSGGFFGIRDSSFL
B5: PRCC (protein, UniProt Q92733 1-491, looked up)
Proline-rich protein PRCC: MSLVAYASSDESEPDEAEPEPEEEEAVAPTSGPALGGLFASLPAPKGPALLPPPPQMLAPAFPPPLLLPPPTGDPRLQPPPPLPFGLGGFPPPPGVSPAEAAGVGEGLGLGLPSPRGPGLNLPPPIGGAGPPLGLPKPKKRKEPVKIAAPELHKGDSDSEEDEPTKKKTILQGSSEGTGLSALLPQPKNLTVKETNRLLLPHAFSRKPSDGSPDTKPSRLASKTKTSSLAPVVGTTTTTPSPSAIKAAAKSAALQVTKQITQEEDDSDEEVAPENFFSLPEKAEPPGVEPYPYPIPTVPEELPPGTEPEPAFQDDAANAPLEFKMAAGSSGAPWMPKPGDDYSYNQFSTYGDANAAGAYYQDYYSGGYYPAQDPALVPPQEIAPDASFIDDEAFKRLQGKRNRGREEINFVEIKGDDQLSGAQQWMTKSLTEEKTMKSFSKKKGEQPTGQQRRKHQITYLIHQAKERELELKNTWSENKLSRRQTQAKYGF
B6: MOBKL3 (protein, UniProt Q96BX8 1-217, looked up)
MOB kinase activator 3A: MSNPFLKQVFNKDKTFRPKRKFEPGTQRFELHKKAQASLNAGLDLRLAVQLPPGEDLNDWVAVHVVDFFNRVNLIYGTISDGCTEQSCPVMSGGPKYEYRWQDEHKFRKPTALSAPRYMDLLMDWIEAQINNEDLFPTNVGTPFPKNFLQTVRKILSRLFRVFVHVYIHHFDRIAQMGSEAHVNTCYKHFYYFVKEFGLIDTKELEPLKEMTARMCH

system: Hsp90 complexes in Mia-PaCa-2 cell extract; assay: Nano-LC-MS/MS of PU-beads pull-downs; type: binding, human; conditions: protein identified in PU-beads pull-down of Mia-PaCa-2 cell extract; QSTAR-Elite QTof MS
Summary of the method: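 They came from PU-bead pull-downs of pre-cleared lysates (control beads, overnight, 4 °C), eluted by boiling in 2% SDS, gel-separated and run by data-dependent nano-ESI QTof MS/MS.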

Row | Molecule | Number of Assigned Spectra, Mia-Paca 2
1 | B1 | 0
2 | B2 | 0
3 | B3 | 0
4 | B4 | 0
5 | B5 | 0
6 | B6 | 1

system: Hsp90 complexes in K562 cell extract; assay: Nano-LC-MS/MS of PU-beads pull-downs; type: binding; conditions: protein identified in PU-beads pull-down of K562 cell extract, Prep 1; QSTAR-Elite QTof MS
Summary of the method: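 Proteins were identified by data-dependent nano LC-MS/MS (QTof, ESI) and Mascot searching (p<0.05), then reported as spectral counts and coverage via Scaffold. Inputs were PU-bead versus control-bead pull-downs from lysate pre-cleared with control beads overnight at 4 °C, eluted by boiling in 2% SDS.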

Row | Molecule | Number of Assigned Spectra, K562 Prep 1
7 | B1 | 2
8 | B2 | 2
9 | B3 | 2
10 | B4 | 2
11 | B5 | 2
12 | B6 | 0

same assay, conditions: protein identified in PU-beads pull-down of K562 cell extract, Prep 2; QSTAR-Elite QTof MS

Row | Molecule | Number of Assigned Spectra, K562 Prep 2
13 | B1 | 0
14 | B2 | 0
15 | B3 | 0
16 | B4 | 0
17 | B5 | 0
18 | B6 | 0
